Data reported in patent US20080193435A1, “Revascularization of Ischemic Retinal Tissue and Screening Method Therefor” (priority 2005, published 2008).
Entries after “also recorded” stand apart in the source; their conditions may differ.

What was measured:
[1] = test system: mouse OIR model; assay: Mouse oxygen-induced retinopathy (OIR) model, whole-mount retina quantification of vascular obliteration and neovascular tuft areas; assay type: in vivo; parameters: vascular morphology of the retina / neovascular tuft areas compared to VEGF aptamer treated retinas: dose or concentration left out as unconfirmed; details: for effect on area of neovascular tuft formation: single intravitreal injection at P12, various doses; for effect on physiological revascularization of the retina: vs PBS control
Description: All animal work adhered to strict protocol guidelines for the humane care and use of animals in research. OIR was induced according to the protocol described by Smith et al. Invest. Opthalmol. Vis. Sci., 1994; 35:101-111. Seven-day old mouse pups and their mothers were transferred from room air to a hyperoxic environment of about 75% oxygen for 5 days, and afterwards returned to room air (normoxia). Exposure to hyperoxic conditions was performed by putting the animal cages within a modified human infant incubator. Oxygen was circulated through the incubator (using an animal anesthesia machine to control flow) and levels were monitored and maintained at 74-75% using an FDA-approved oxygen analyzer (AX-300, Teledyne Analytical Instruments, CA, USA). During the 5 days of hyperoxia, the animals were examined at least three times daily. Unlimited food and water were available to the mothers throughout the experiment. After 5 days, i.e., at postnatal Day 12 (P12), cages were returned to room air.
After the mice were euthanized, enucleated eyes were fixed in 4% paraformaldehyde in PBS for about 10 minutes, and the retinas were dissected by making a circular cut behind the limbus, approximately at the iris root, and then removing the anterior part of the eye. The lens and vitreous were dissected out, and the retina was separated from the scleral and choroidal layers leaving the retina in an eye-cup configuration. Radial relaxing-incisions were made in the retina to allow it to flatten and any remnants of the vitreous or hyaloid were carefully removed from the flattened retina.
For FITC-dextran angiography, animals were anaesthetized by intraperitoneal injections of Ketamine HCl (Ketalar, Parke Davis, UK, 100 mg/kg) in combination with the relaxing agent Xylazine (2 mg/kg). Approximately 300 μl of high molecular weight (2×106 Da) FITC-Dextran (concentration 50 mg/ml, Sigma, St. Louis, Mo.) were injected into the left ventricle and allowed to circulate for approximately two minutes before euthanizing the animal and enucleating the eyes. For isolectin G4 staining, retinas were post-fixed in 4% paraformaldehyde for about 45 minutes, and incubated at room temperature overnight with isolectin GS-IB4 from Griffonia simplicifolia (isolectin GS) that was conjugated to Alexa Fluor 59 4 (Molecular Probes, 1:150 dilution in phosphate buffered saline (PBS)) to afford “isolectin GS-594”. Following 4-5 washes with PBS over a 2 hour span, retinas were mounted as whole-mount preparations on slides with SLOW FADE (Molecular Probes) for subsequent imaging.
Micrographic images were taken using a 4× objective lens with a detector resolution of 512×512 pixels. Extra care was taken to focus just above the inner limiting membrane of the retina using confocal microscopy (BioRad) so that the pre-laminar neovascular tufts became more prominent than the underlying superficial vascular plexus making subsequent quantification of the neovascular tuft areas easier. In most cases, four overlapping images (each representing one retinal quadrant) were acquired from each retina. Using Adobe PHOTOSHOP® 6.0, montages were then created using retinal landmarks such as the optic disc and major vessels to align the images. These montages allowed visualization and quantification of the entire retina. In a few cases where both the obliterated areas and all areas of neovascularization were located toward the center of the retina, single 4× images centered on the optic disk were acquired. While the peripheral retina is not included in its entirety in such images, the relevant OIR-induced changes can be fully seen in these cases. Each individual image was converted to a 2×2 inch size with 300 pixels per inch resolution prior to creating the montage and quantifying the obliteration and neovascular tuft areas. […]

[2] = test system: angiogenesis; details: previously found; cited from earlier work
[3] = single intravitreal injection at P12, read at P17

B1: T2-TrpRS: proteolytic fragment of tryptophan tRNA synthetase (TrpRS); SEQ ID NO: 1 (protein, listed as Homo sapiens)
chain: SAKGIDYDKLIVRFGSSKIDKELINRIERATGQRPHHFLRRGIFFSHRDMNQVLDAYENKKPFYLYTGRGPSSEAMHVGHLIPFIFTKWLQDVFNVPLVIQMTDDEKYLWKDLTLDQAYSYAVENAKDIIACGFDINKTFIFSDLDYMGMSSGFYKNVVKIQKHVTFNQVKGIFGFTDSDCIGKISFPAIQAAPSFSNSFPQIFRDRTDIQCLIPCAIDQDPYFRMTRDVAPRIGYPKPALLHSTFFPALQGAQTKMSASDPNSSIFLTDTAKQIKTKVNKHAFSGGRDTIEEHRQFGGNCDVDVSFMYLTFFLEDDDKLEQIRKDYTSGAMLTGELKKALIEVLQPLIAEHQARRKEVTDEIVKEFMTPRKLSFDFQ
reduction of tuft formation ([1]; P19, after two injections (P13 and P16) of lower doses, VEGF aptamer 0.5 mg/eye/injection, 53.9 picomoles): over 75% | neovascular tuft areas compared to VEGF aptamer treated retinas ([1]; T2-TrpRS, intravitreal, molar concentration 10-fold below the aptamer): slight, but significant reduction | inhibition of neovascular tuft formation ([1]; about 1.25 μg/eye, intravitreal): nearly complete inhibition | vascular morphology of the retina ([1]; intravitreal at P12, P17): looked nearly normal | obliterated areas compared to control retinas ([1]; intravitreal injection, areas of obliteration equivalent at time of injection): reduced by half | effect on area of neovascular tuft formation ([1]; read at P17): markedly reduced the area of neovascular tuft formation at P17 in a dose-dependent matter; also recorded: potent inhibitors of neovascular tuft formation; also recorded: strong, dose-dependent angiostatic effect | reduction of obliterated areas at P17 compared to PBS control-injected retinas [1, 3]: around 40% | effect on physiological revascularization of the retina [1, 3]: significantly enhanced revascularization, even at lower doses | angiostatic activity in other models of angiogenesis [2]: potent angiostatic potential

B2: FL-TrpRS: full-length tryptophan tRNA synthetase (protein, UniProt P23381 1-471, looked up)
chain: MPNSEPASLLELFNSIATQGELVRSLKAGNASKDEIDSAVKMLVSLKMSYKAAAGEDYKADCPPGNPAPTSNHGPDATEAEEDFVDPWTVQTSSAKGIDYDKLIVRFGSSKIDKELINRIERATGQRPHHFLRRGIFFSHRDMNQVLDAYENKKPFYLYTGRGPSSEAMHVGHLIPFIFTKWLQDVFNVPLVIQMTDDEKYLWKDLTLDQAYSYAVENAKDIIACGFDINKTFIFSDLDYMGMSSGFYKNVVKIQKHVTFNQVKGIFGFTDSDCIGKISFPAIQAAPSFSNSFPQIFRDRTDIQCLIPCAIDQDPYFRMTRDVAPRIGYPKPALLHSTFFPALQGAQTKMSASDPNSSIFLTDTAKQIKTKVNKHAFSGGRDTIEEHRQFGGNCDVDVSFMYLTFFLEDDDKLEQIRKDYTSGAMLTGELKKALIEVLQPLIAEHQARRKEVTDEIVKEFMTPRKLSFDFQ
modifications: full-length
notes: full-length tryptophan tRNA synthetase
effect on area of neovascular tuft formation ([1]; read at P17): some activity at the highest dose | effect on physiological revascularization of the retina [1, 3]: significant enhancement of the revascularization process but only at the higher doses | angiostatic activity in other models of angiogenesis [2]: no angiostatic activity
